Several values for one entry are separate records, joined by “and”; a condition that tells them apart may be missing. Identical values can stand only once. Like-named read-outs stand apart in the source and are kept apart here.
Assays:
[1] = biological target: T1, human claudin 6 (CLDN6) (human, UniProt P56747 1-220); assay: FACS, HEK293-hCLDN6 cells
T1 construct: also called human CLDN6; hCLDN6
T1 sequence: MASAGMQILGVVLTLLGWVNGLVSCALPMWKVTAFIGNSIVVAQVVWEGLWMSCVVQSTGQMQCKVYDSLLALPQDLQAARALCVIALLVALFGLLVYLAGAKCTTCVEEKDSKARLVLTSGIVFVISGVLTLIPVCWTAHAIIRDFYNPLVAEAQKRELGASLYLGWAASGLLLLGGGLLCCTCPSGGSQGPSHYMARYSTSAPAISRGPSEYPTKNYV

[2] = biological target: T1, human claudin 6 (CLDN6); assay: FACS, HEK293T-hCLDN6 cells
[3] = biological target: T2, cyno CLDN6 (cyno); assay: FACS, HEK293T-cyno-CLDN6 cells
T2 construct: whole, on cells; also called cynomolgus CLDN6

[4] = biological target: T2, cyno CLDN6; assay: FACS, HEK293T_cyno-CLDN6 cells
[5] = biological target: T1, human claudin 6 (CLDN6); assay: FACS, HEK293T/human CLDN6 cells
Method: (§1) For affinity determination, CLDN6 over-expressing HEK293T cells and cancer cell line PA-1 which express high levels of human CLDN6 were used to evaluate the binding activity of BG87P related engineering variants. Live cells were seeded in 96-well plate, and were incubated with a series of dilutions of chBG87P and engineered variants thereof. Goat anti-human IgG was used as second antibody to detect antibody binding to the cell surface. EC50 values for dose-dependent binding to CLDN6 expressing cell lines were determined by fitting the dose-response data to the four-parameter logistic model with GraphPad Prism. Cell binding activity of 1st round of BG87P humanization variants against HEK293T/human CLDN6 were compared to chBG87P and shown in FIG. 1A.
Beginning with the chBG87P antibody and BG87P-Bz0, several additional amino acid changes in the CDR regions of both VH and VL were made to further improve the biophysical properties for therapeutics use in human. The considerations included removing post translational modifications (PTM), improved heat stability (Tm), while maintaining binding activities, the resulted variants are BG87P-m1 (VH SEQ ID NO: 31 and VL SEQ ID NO: 8), BG87P-m2 (VH SEQ ID NO: 32 and VL SEQ ID NO: 8), BG87P-m3 (VH SEQ ID NO: 33 and VL SEQ ID NO: 8), and BG87P-m4 (VH SEQ ID NO: 34 and VL SEQ ID NO: 8) and BG87P-m5 (VH SEQ ID NO: 35 and VL SEQ ID NO: 14), BG87P-m6 (VH SEQ ID NO: 36 and VL SEQ ID NO 14), BG87P-m7 (VH SEQ ID NO: 37 and VL SEQ ID NO: 14), and BG87P-m8 (VH SEQ ID NO: 38 and VL SEQ ID NO: 14). Cell binding activity of chBG87P and BG87P-Bz0 related PTM removal variants against HEK293T/human CLDN6 was compared with chBG87P and BG87-Bz0, respectively ([…]). Cell binding affinity (EC50) and Emax (MFI) was normalized to chBG87P for directly comparison and ranking (Table 7).

[6] = biological target: T1, human claudin 6 (CLDN6); assay: FACS, PA-1 cells (endogenous CLDN6)
Method: as §1

[7] = biological target: T2, cyno CLDN6; assay: flow cytometry on CHOK1/cyno CLDN6 cells, MFI(PE)
[8] = biological target: T3, human claudin 9 (CLDN9) (human, UniProt O95484 1-217); assay: flow cytometry on HEK293T/human CLDN9 cells, MFI(PE)
T3 construct: also called human CLDN9
T3 sequence: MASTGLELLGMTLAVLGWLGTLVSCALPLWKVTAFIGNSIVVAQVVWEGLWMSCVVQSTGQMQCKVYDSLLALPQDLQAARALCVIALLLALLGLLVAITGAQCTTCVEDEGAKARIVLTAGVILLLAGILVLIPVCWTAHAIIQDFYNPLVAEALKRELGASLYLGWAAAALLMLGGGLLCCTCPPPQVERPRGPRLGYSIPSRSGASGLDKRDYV

[9] = biological target: T1, human claudin 6 (CLDN6); assay: flow cytometry on HEK293T/human CLDN6 cells, goat anti-human IgG secondary, MFI(PE)
Method: as §1

[10] = biological target: T4, mouse CLDN6 (mouse, UniProt Q9Z262 1-219); assay: flow cytometry on CHOK1/mouse CLDN6 cells, MFI(PE)
T4 construct: whole, on cells
T4 sequence (looked up): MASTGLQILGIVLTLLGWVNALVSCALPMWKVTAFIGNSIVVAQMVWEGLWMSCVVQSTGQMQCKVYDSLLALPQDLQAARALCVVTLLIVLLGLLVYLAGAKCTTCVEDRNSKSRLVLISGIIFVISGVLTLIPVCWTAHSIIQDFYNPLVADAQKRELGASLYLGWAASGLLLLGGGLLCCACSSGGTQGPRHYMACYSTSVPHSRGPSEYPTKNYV

[11] = biological target: T5, human native CD3 on live cells (HuT78, Jurkat) (human, UniProt P07766 23-207; P09693 23-182; P04234 22-171); assay: FACS, HuT78 cells
T5 construct: whole, on cells; also called human CD3
T5 sequence (P07766 23-207, chain 1 of 3): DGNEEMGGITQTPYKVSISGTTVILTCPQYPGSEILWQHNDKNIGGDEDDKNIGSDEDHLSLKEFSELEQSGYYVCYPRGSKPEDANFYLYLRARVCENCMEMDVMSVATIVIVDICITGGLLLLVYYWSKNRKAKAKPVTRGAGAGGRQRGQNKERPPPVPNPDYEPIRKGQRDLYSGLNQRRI
T5 sequence (P09693 23-182, chain 2 of 3): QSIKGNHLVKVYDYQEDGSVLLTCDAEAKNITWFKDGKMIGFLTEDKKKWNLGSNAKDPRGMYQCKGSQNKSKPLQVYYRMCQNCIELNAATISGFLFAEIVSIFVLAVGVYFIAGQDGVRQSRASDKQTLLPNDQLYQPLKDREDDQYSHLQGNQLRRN
T5 sequence (P04234 22-171, chain 3 of 3): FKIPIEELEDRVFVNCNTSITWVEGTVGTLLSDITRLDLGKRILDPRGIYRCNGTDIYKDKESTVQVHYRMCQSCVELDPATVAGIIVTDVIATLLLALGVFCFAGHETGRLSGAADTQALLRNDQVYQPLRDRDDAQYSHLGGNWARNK
Method: (§2) For affinity determination, antibodies were captured by anti-human Fc surface, and used in the affinity-assay based on surface plasmon resonance (SPR) technology. The binding activity of humanized sp34 to bind native CD3 on live cells was evaluated using HuT78 cells in a FACS based assay. Live HuT78 cells were seeded in 96-well plate, and were incubated with a series of dilutions of chimeric or humanized sp34. Mouse anti-Human IgG was used as second antibody to detect antibody binding to the cell surface. EC50 values for dose-dependent binding to human native CD3 were determined by fitting the dose-response data to the four-parameter logistic model with GraphPad Prism.

[12] = biological target: T5, human native CD3 on live cells (HuT78, …); assay: FACS, HuT78 cells; remark: listed apart in the source
Method: as §2

[13] = biological target: T6, CD3ε (SPR analyte) (UniProt P07766 23-126, limits assumed); assay: SPR, antibody captured by anti-human Fc
T6 sequence (P07766 23-126 limits assumed): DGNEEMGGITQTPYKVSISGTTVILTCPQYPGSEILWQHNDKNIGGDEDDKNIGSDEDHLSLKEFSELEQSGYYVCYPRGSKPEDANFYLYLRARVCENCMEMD
Method: as §2

[14] = biological target: T6, CD3ε (SPR analyte); assay: SPR, antibody captured by anti-human Fc; remark: listed apart in the source
Method: as §2

[15] = biological target: T5, human native CD3 on live cells (HuT78, …); assay: flow cytometry on live HuT78 cells, mouse anti-human IgG secondary, MFI
Method: as §2

[16] = biological target: T5, human native CD3 on live cells (HuT78, …); assay: as above; remark: listed apart in the source
Method: as §2

[17] = biological target: T6, CD3ε (SPR analyte); assay: SPR

B1: chimeric BG87P antibody (chBG87P) (antibody, V domains shown)
VH: QIQLQQSGPELVKPGASVKISCKASGYSFTDYHINWVKQRPGQGLEWIGWIYPGSGYTKYNEKFKVKATLTVDTSSSTAYMHLTSLTSEDSAVYFCARSGIYHYVSSYYFDHWGQGTTLTVSS
VL: DIVMTQSHTFMSTSVGDRVSITCKASQDVGTAVAWYQQKPGQSPKLLIYWASTRHTGVPDRFTGSGSGTDFTLTISNVQSEDLADYFCQQYSSYTFGGGTKLEIK
- FACS-Ec50 ratio to BG87P [1]: 1 ratio
- FACS Emax ratio to BG87P [2]: 1 ratio
- FACS Emax ratio to BG87P [3]: 1 ratio
- EC50 [4]: 7.2 nM
- EC50 [5]: 2.72 nM
- Emax ratio to BG87P [5]: 1 ratio
- Top MFI Mean [5]: 192000 MFI
- EC50 [6]: 8.33 nM
- Emax ratio to BG87P [6]: 1 ratio
- Top MFI Mean [6]: 125000 MFI
- EC50 (read off the curve) [7]: ~7 nM
- binding result [8]: no binding (tested: about 250 nM (log 2.4))
- EC50 (read off the curve) [9]: ~10 nM

B2: BG87P-21 (antibody, V domains shown)
VH: QVQLVQSGAEVKKPGASVKVSCKASGYSFTDYHINWVRQAPGQRLEWMGWIYPGSGYTKYNEKFKGRVTITRDTSASTAYMELSSLRSEDTAVYYCARSGIYHYVSSYYFDHWGKGTTVTVSS
VL: DIQMTQSPSTLSASVGDRVTITCKASQDVGTAVAWYQQKPGKAPKLLIYWASTRHTGVPSRFSGSGSGTEFTLTISSLQPDDFATYYCQQYSSYTFGGGTKVEIK
- FACS-Ec50 ratio to BG87P [1]: 0.91 ratio
- FACS Emax ratio to BG87P [2]: 0.66 ratio
- FACS Emax ratio to BG87P [3]: 0.8 ratio
- EC50 [4]: 8.9 nM
- EC50 [5]: 3.07 nM
- Emax ratio to BG87P [5]: 0.78 ratio
- Top MFI Mean [5]: 149000 MFI
- EC50 [6]: 2.8 nM and 2.62 nM
- Emax ratio to BG87P [6]: 0.61 ratio
- EC50 (read off the curve) [7]: ~9 nM
- binding result [10]: binds
- EC50 (read off the curve) [9]: ~10 nM

B3: BG87P-33 (antibody, V domains shown)
VH: EVQLQESGGGLVQPGGSLRLSCAASGYSFTDYHINWVRQAPGKGLEWVSYIYPGSGHTKYNEKFKGRFTISRDTSKNTAYLQMNSLRAEDTAVYYCARSGIYHYVSSYYFDHWGQGTLVTVSS
VL: DIQMTQSPSTLSASVGDRVTITCKASQDAGSAVAWYQQKPGKAPKLLIYWASTRHTGVPSRFSGSGSGTEFTLTISSLQPDDFATYYCQQYSSYTFGGGTKVEIK
notes: Framework-swapped variant; also called BG87-33
- FACS-Ec50 ratio to BG87P [1]: 2.45 ratio
- FACS Emax ratio to BG87P [2]: 0.91 ratio
- FACS Emax ratio to BG87P [3]: 0.75 ratio
- EC50 [4]: 25.8 nM
- binding result [10]: binds

B4: chimeric sp34 (ch-sp34) (antibody, V domains shown)
VH: EVQLVESGGGLVQPKGSLKLSCAASGFTFNTYAMNWVRQAPGKGLEWVARIRSKYNNYATYYADSVKDRFTISRDDSQSILYLQMNNLKTEDTAMYYCVRHGNFGNSYVSWFAYWGQGTLVTVSS
VL: QAVVTQESALTTSPGETVTLTCRSSTGAVTTSNYANWVQEKPDHLFTGLIGGTNKRAPGVPARFSGSLIGDKAALTITGAQTEDEAIYFCALWYSNLWVFGGGTKLTVL
- EC50 [11]: 1.9 nM
- EC50 [12]: 2.49 nM
- Kd [13]: 2.3 nM
- koff [13]: 0.000496 s⁻¹
- kon [13]: 216000 M⁻¹ s⁻¹
- Kd [14]: 2.3 nM
- koff [14]: 0.000496 s⁻¹
- kon [14]: 216000 M⁻¹ s⁻¹
- EC50 (read off the curve) [15]: ~0.3 µg/mL
- EC50 (read off the curve) [16]: ~0.4 µg/mL

B5: humanized sp34 BG53P (antibody, V domains shown)
VH: EVQLVESGGGLVQPGGSLRLSCAASGFTFNTYAMNWVRQAPGKGLEWVARIRSKYNNYATYYADSVKDRFTISRDDAKSSLYLQMNSLRAEDTAMYYCVRHGNFGNSYVSWFAYWGQGTLVTVSS
VL: QAVVTQSPATLSVSPGERATLSCRSSTGAVTTSNYANWVQEKPGQLFTGLIGGTNKRAPGIPARFSGSLSGDEATLTISSLQSEDFAIYFCALWYSNLWVFGGGTKVEIK
notes: also called hu-sp34
- EC50 [11]: 1.8 nM
- EC50 [12]: 1.72 nM
- Kd [13]: 2.65 nM
- koff [13]: 0.000525 s⁻¹
- kon [13]: 198000 M⁻¹ s⁻¹
- Kd [14]: 4.58 nM
- koff [14]: 0.000484 s⁻¹
- kon [14]: 106000 M⁻¹ s⁻¹
- EC50 (read off the curve) [15]: ~0.3 µg/mL
- EC50 (read off the curve) [16]: ~0.3 µg/mL

B6: humanized sp34 BG56P (antibody, V domains shown)
VH: EVQLVESGGGLVQPGGSLRLSCAASGFTFNTYAMNWVRQAPGKGLEWVARIRSKYNNYATYYADSVKDRFTISRDDAKNSLYLQMNSLRAEDTAVYYCVRHGNFGNSYVSWFAYWGQGTLVTVSS
VL: EIVLTQSPATLSVSPGERATLSCRSSTGAVTTSNYANWVQQKPGQAPRGLIGGTNKRAPGIPARFSGSLSGDEATLTISSLQSEDFAVYYCALWYSNLWVFGGGTKVEIK
- Kd [17]: 7.06 nM
- koff [17]: 0.000325 s⁻¹
- kon [17]: 46000 M⁻¹ s⁻¹
- EC50 [11]: 4.69 nM
- EC50 [12]: 4.69 nM
- Kd [14]: 7.06 nM
- koff [14]: 0.000325 s⁻¹
- kon [14]: 46000 M⁻¹ s⁻¹
- EC50 (read off the curve) [15]: ~0.7 µg/mL
- EC50 (read off the curve) [16]: ~0.7 µg/mL

Source: patent US20240301062A1 (BEIGENE SWITZERLAND, published 2024)
